Here are results for 1 molecule from patent US11702475B2, “Cysteine engineered fibronectin type III domain binding molecules” (Janssen Biotech, Inc., priority 2013, dated 2023).

In test [1] the test system is NCI-H322 cells. The test can be described thus: NCI-H322 growth assay. In kind it is cell-based, human. As to conditions: 120 hours, CellTiter-Glo. As for the experimental part: (§1) Inhibition of EGFR-dependent cell growth was assessed by measuring viability of the EGFR over-expressing human tumor cell lines, NCI-H292 and NCI-H322 (American Type Culture Collection, cat. #CRL-1848 & #CRL-5806, respectively), following exposure to EGFR-binding FN3 domains. Cells were plated at 500 cells/well (NCI-H292) or 1,000 cells/well (NCI-H322) in opaque white 96-well tissue culture-treated plates (Nunc) in 1004/well of RPMI medium (Gibco) containing GlutaMAX™ and 10 mM HEPES, supplemented with 10% heat inactivated fetal bovine serum (Gibco) and 1% penicillin/streptomycin (Gibco), and allowed to attach overnight at 37° C. in a humidified 5% CO2 atmosphere. Cells were treated by addition of 54/well of phosphate-buffered saline (PBS) containing a concentration range of EGFR-binding FN3 domains. […] Viable cells were detected by addition of 754/well of CellTiter-Glo® reagent (Promega), followed by mixing on a plate shaker for 2 minutes, and incubation in the dark at room temperature for a further 10 minutes. Plates were read on a SpectraMax M5 plate reader (Molecular Devices) set to luminescence mode, with a read time of 0.5 seconds/well against a blank of medium only. […] IC50 values were determined by fitting data to the equation for a sigmoidal dose response with variable slope using GraphPad Prism 4 (GraphPad Software).

Test [2] concerns the target T1, EGFR-Fc (recombinant human extracellular domain of EGFR fused to an IgG1 Fc) (Homo sapiens, UniProt P00533).
T1 construct: purchased R&D Systems
Description: Affinity of FN3 domains to EGFR-Fc by surface plasmon resonance (ProteOn), incl. off-rate screen. Format: binding. As to conditions: SPR ProteOn, 1:1 Langmuir fit. As for the experimental part:
Select EGFR-binding FN3 domains were screened to identify those with slow off-rates (koff) in binding to EGFR-Fc on a ProteOn XPR-36 instrument (Bio-Rad) to facilitate selection of high affinity binders. Goat anti-human Fc IgG (R&D systems), at a concentration of 5 μg/mL, was directly immobilized via amine coupling (at pH 5.0) on all 6 ligand channels in horizontal orientation on the chip with a flow rate of 30 μL/min in PBS containing 0.005% Tween-20. The immobilization densities averaged about 1500 Response Units (RU) with less than 5% variation among different channels. EGFR-Fc was captured on the anti-human Fc IgG surface to a density around 600 RU in vertical ligand orientation. All tested FN3 domains were normalized to a concentration of 1 μM and tested for their binding in horizontal orientation. […] The dissociation phase was monitored for 10 minutes at a flow rate of 100 μL/min. […]
Binding affinity of selected EGFR-binding FN3 domains to recombinant EGFR extracellular domain was further characterized by surface Plasmon resonance methods using a Proteon Instrument (BioRad). […] The dissociation phase for all concentrations of each EGFR-binding FN3 domain was monitored at a flow rate of 100 μL/min for 30 minutes (for those with koff˜10^−2 s^−1 from off-rate screening), or 1 hour (for those with koff˜10^−3 s^−1 or slower). […]
On the technique in general: In SPR one partner is held on a chip, and binding of the other changes the refractive index at the surface.

Test [3] addresses T2, EGFR on A431 cells (Homo sapiens, UniProt P00533).
T2 construct: A431 cells (American Type Culture Collection, cat. #CRL-1555) over-express EGFR; host or cells: A431
Description: A431 cell binding assay. Particulars: 1 hour room temperature. Here is the method: To assess the ability of different FN3 domains to bind EGFR in a more physiological context, their ability to bind A431 cells was measured. A431 cells (American Type Culture Collection, cat. #CRL-1555) over-express EGFR with ˜2×10^6 receptors per cell. Cells were plated at 5,000/well in opaque black 96-well plates and allowed to attach overnight at 37° C., in a humidified 5% CO2 atmosphere. FN3 domain-expressing bacterial lysates were diluted 1,000-fold into FACS stain buffer (Becton Dickinson) and incubated for 1 hour at room temperature in triplicate plates. Lysates were removed and cells were washed 3 times with 150 μL/well of FACS stain buffer. Cells were incubated with 50 μL/well of anti-penta His-Alexa488 antibody conjugate (Qiagen) diluted 1:100 in FACS stain buffer for 20 minutes at room temperature. Cells were washed 3 times with 150 μL/well of FACS stain buffer, after which wells were filled with 100 μL of FACS stain buffer and read for fluorescence at 488 nm using an Acumen eX3 reader. […]
A431 cells were plated at 5,000/well in opaque black 96-well plates and allowed to attach overnight at 37° C., in a humidified 5% CO2 atmosphere. […] Cells were washed 3 times with 150 μL/well of FACS stain buffer, after which wells were filled with 100 μL of FACS stain buffer and read for fluorescence at 488 nm using an Acumen eX3 reader. […]

The subject of test [4] is NCI-H292 cells. Description: NCI-H292 growth assay. Particulars: 120 hours, CellTiter-Glo. Format: cell-based, human. Here is the method: as §1
Background: In ATP-based viability assays light output follows the ATP content of the culture.

B1: P54AR4-47: EGFR-binding FN3 domain, SEQ ID NO: 20 (protein)
chain: LPAPKNLVVSEVTEDSLRLSWGYNGDHFDSFLIQYQESEKVGEAINLTVPGSERSYDLTGLKPGTEYTVSIYGVHNVYKDTNMRGLPLSAEFTT
modifications: EGFR binding FN3 domain
In the case of B1, the values for the IC50 in test [1] and in test [4] were 39 nM and 44 nM, respectively. Besides, the Kd (usually the constant that tells how readily two partners part at equilibrium) in test [2] worked out at 2.51 nM. Further, in test [3], a half-maximal response (EC50) required 8.6 nM.
